Test results reported in patent publication US20250382381A1.

Molecular target: mouse ART2 (ART2.2) on T cells (mouse) (UniProt O35975)
Experiment: cell-based or functional assay

mouse ART2 (ART2.2) on T cells (mouse), sequence (O35975 21-260): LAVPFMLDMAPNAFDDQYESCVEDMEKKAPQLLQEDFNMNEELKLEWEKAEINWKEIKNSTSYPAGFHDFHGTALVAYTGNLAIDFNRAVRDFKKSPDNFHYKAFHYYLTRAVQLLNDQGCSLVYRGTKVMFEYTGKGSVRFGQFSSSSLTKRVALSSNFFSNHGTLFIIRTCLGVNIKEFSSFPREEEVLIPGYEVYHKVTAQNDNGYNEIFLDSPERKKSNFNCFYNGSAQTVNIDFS

ADP-ribosylation of CD4 T cells (eNAD staining, flow cytometry): 9.3%
ADP-ribosylation of CD8 T cells (eNAD staining, flow cytometry): 12.9%
Substance: ART2-blocking nanobody (s+16a) (VHH)
